In patent US20260217833A1 (APTEVO RESEARCH AND DEVELOPMENT, published 2026):
One block for each binder: values may come before it.

Legend:
[1] = target: T1, Human PD-L1 full-length (human, UniProt Q9NZQ7 19-290); experiment: flow cytometry, CHOK1SV/human PD-L1 cells
T1 construct: also called PDL01021; CHOK1SV/huPDL1

[2] = target: T2, human CD40 full-length (human, UniProt P25942 21-277); experiment: flow cytometry, CHOK1SV/human CD40 cells
T2 construct: Also used for CD40 of Daudi cells, of CD40-expressing HEK293 cells and of the BPS CD40/NFkB HEK293 reporter cells where the row says so; also called CD4001012; CHOK1SV/CD40

[3] = target: T3, huPD-L1 ECD AFH (human); experiment: SPR, binder captured on anti-human IgG, PD-L1 ECD injected, 1:1 fit
T3 construct: also called PDL01001; recombinant human PD-L1 ectodomain (ECD)
T3 sequence (chain, as listed by the source limits assumed): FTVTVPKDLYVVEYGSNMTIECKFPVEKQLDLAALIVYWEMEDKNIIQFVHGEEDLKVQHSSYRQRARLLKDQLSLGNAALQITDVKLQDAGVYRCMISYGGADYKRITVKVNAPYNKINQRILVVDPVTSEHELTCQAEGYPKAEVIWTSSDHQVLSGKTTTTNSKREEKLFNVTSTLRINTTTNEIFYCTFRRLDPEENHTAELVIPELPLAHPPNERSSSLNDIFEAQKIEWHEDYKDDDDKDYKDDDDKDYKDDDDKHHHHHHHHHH

[4] = target: T4, Cyno PD-L1 full-length (cynomolgus, UniProt Q9NZQ7 19-290 (human entry)); experiment: MSD cell binding, CHOK1SV/cynomolgus PD-L1 cells; x axis without printed unit
T4 construct: also called PDL01022; CHOK1SV/cynoPDL1
T4 sequence (Q9NZQ7 other isoform, or with tags, fused parts or gaps): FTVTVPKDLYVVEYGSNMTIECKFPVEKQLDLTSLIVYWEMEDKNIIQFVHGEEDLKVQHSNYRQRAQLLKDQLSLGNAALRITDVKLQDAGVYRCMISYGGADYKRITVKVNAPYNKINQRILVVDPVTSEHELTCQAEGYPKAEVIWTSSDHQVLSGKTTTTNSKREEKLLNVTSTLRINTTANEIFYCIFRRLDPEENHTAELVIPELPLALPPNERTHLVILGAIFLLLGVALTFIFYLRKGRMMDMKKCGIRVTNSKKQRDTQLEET

[5] = target: T1, Human PD-L1 full-length; experiment: MSD cell binding, CHOK1SV/human PD-L1 cells; x axis without printed unit

T1 sequence (Q9NZQ7 19-290): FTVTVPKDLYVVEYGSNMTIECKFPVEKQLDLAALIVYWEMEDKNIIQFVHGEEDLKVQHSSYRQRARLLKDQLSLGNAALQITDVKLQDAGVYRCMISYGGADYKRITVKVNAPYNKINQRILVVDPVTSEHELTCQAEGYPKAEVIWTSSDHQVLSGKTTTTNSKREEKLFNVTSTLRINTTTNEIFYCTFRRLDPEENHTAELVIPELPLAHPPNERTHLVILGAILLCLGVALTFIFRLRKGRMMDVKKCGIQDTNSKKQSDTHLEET

binding result [1]: binds
binding result [2]: binds
B1: CD4001080 (bispecific antibody)
Fc-knob x CD40_5B9: EPKSSDKTHTCPPCPAPPAAAPSVFLFPPKPKDTLMISRTPEVTCVVVDVSHEDPEVKFNWYVDGVEVHNAKTKPREEQYNSTYRVVSVLTVLHQDWLNGKEYKCAVSNKALPAPIEKTISKAKGQPREPQVYTLPPSRDELTKNQVSLWCLVKGFYPSDIAVEWESNGQPENNYKTTPPVLDSDGSFFLYSKLTVDKSRWQQGNVFSCSVMHEALHNHYTQKSLSLSPGGGGSPSDVVMTQTPLSLPVSLGDQASISCRSSQSLVHYNGYTYLHWYLQKPGQSPKLLIYKVSNRFSGVPDRFSGSGSGTDFTLKISRVEAEDLGVYFCSQTTHVPLTFGAGTKLELRGGGGSGGGGSGGGGSGGGGSEVMLVESGGGLVKPGGSLKLSCAASGFTFSSYAMSWVRQTPERRLEWVASISSAGTYIYYPDSVKGRFTISRDNAKNILYLQMNSLRSEDTAMYYCARHGNGYDPLWYFDVWGAGTTVTVSS
PDL_5F9 x Fc-Hole x CD40_5B9: EVQLVESGGGLVKPGGSLRLSCAASGFTFSDYGMAWVRQAPGKGLEWVAFITSLAYIIYYADSVKGRFTISRDNAKNSLYLQMNSLRAEDTAVYYCARNYGSSPYYFDYWGQGTLVTVSSGGGGSGGGGSGGGGSGGGGSDIQMTQSPSSLSASVGDRVTITCRASQDINKFLSWYQQKPGKAPKLLIHYTSSLQPGVPSRFSGSGSGTDFTLTISSLQPEDFATYYCLQYDNLYTFGQGTKLEIKEPKSSDKTHTCPPCPAPPAAAPSVFLFPPKPKDTLMISRTPEVTCVVVDVSHEDPEVKFNWYVDGVEVHNAKTKPREEQYNSTYRVVSVLTVLHQDWLNGKEYKCAVSNKALPAPIEKTISKAKGQPREPQVYTLPPSRDELTKNQVSLSCAVKGFYPSDIAVEWESNGQPENNYKTTPPVLDSDGSFFLVSKLTVDKSRWQQGNVFSCSVMHEALHNRFTQKSLSLSPGGGGSPSDVVMTQTPLSLPVSLGDQASISCRSSQSLVHYNGYTYLHWYLQKPGQSPKLLIYKVSNRFSGVPDRFSGSGSGTDFTLKISRVEAEDLGVYFCSQTTHVPLTFGAGTKLELRGGGGSGGGGSGGGGSGGGGSEVMLVESGGGLVKPGGSLKLSCAASGFTFSSYAMSWVRQTPERRLEWVASISSAGTYIYYPDSVKGRFTISRDNAKNILYLQMNSLRSEDTAMYYCARHGNGYDPLWYFDVWGAGTTVTVSS

Kd [3]: 1.1 nM
koff [3]: 0.0012 s⁻¹
kon [3]: 1.1e+06 M⁻¹ s⁻¹
B2: PDL01152 (Fc fusion)
chain: DIQMTQSPSSLSASVGDRVTITCRASQDINKFLSWYQQKPGKAPKLLIHYTSSLQSGVPSRFSGSGSGTDFTLTISSLQPEDFATYYCLQYDNLYTFGQGTKLEIKGGGGSGGGGSGGGGSGGGGSEVQLVESGGGLVQPGGSLRLSCAASGFTFSDYGMAWVRQAPGKGLEWVSFITSLAYIIYYADSVKGRFTISRDNAKNSLYLQMNSLRAEDTAVYYCARNYGSSPYYFDYWGQGTLVTVSS
notes: scFv (VL-VH); also called Humanized 5F9 anti-PD-L1 scFv; not shown: wildtype IgG1 Fc region

binding result [4]: binds
Kd [3]: 0.2 nM
koff [3]: 0.00024 s⁻¹
kon [3]: 1.4e+06 M⁻¹ s⁻¹
binding result [5]: binds
B3: PDL01034 (5F9HL x human IgG1 WT Fc) (Fc fusion)
chain: EVKLVESGGGLVQPGGSRKLSCAASGFTFSDYGMAWVRQAPGKGPEWVAFITSLAYIIFYSDTVTGRFTISRENAKNTLYLEMSSLRSEDTAVYYCARNYGSSPYYFDYWGQGTTLTVSSGGGGSGGGGSGGGGSGGGGSDIQMTQSPSSLSTSLGGKVTITCKASQDINKFISWYQHKPGKGPRLLIHYTSSLQPGIPSRFSGSGSGRDYSFSISNLEPEDIATYYCLQYDNLYTFGGGTKLEIK
notes: Murine anti-PD-L1 scFv (VH-VL) on human IgG1 wild-type Fc; also called PDL01034 (Parent); 5F9 clone PDL01034; not shown: human IgG1 WT Fc
